This note sets out measurements from patent US20250243278A1 (SHANGHAI HENLIUS BIOTECH, published 2025).

Test [1] addresses T1, recombinant human B7H3 extra cellular domain (ECD) protein (human, UniProt Q5ZPR3 29-461).
T1 construct: also called h-B7H3 ECD; h-B7H3; not shown: C-terminal poly-histidine tag or Fc tag
T1 sequence: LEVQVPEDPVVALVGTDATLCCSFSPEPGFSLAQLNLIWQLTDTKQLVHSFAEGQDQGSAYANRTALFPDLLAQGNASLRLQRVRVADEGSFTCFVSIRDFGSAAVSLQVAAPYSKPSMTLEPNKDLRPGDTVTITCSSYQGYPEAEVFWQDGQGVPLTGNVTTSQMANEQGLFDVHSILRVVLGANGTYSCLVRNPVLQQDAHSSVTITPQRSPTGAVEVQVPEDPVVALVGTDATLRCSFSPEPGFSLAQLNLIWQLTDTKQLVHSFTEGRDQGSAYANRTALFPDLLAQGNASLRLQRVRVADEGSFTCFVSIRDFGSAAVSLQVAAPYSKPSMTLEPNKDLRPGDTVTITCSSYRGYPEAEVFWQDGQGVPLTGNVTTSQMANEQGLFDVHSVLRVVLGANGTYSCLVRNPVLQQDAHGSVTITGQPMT
The experiment in a line: ELISA on human B7H3 (h-B7H3 ECD coated plates), OD450.

Test [2] addresses T2, human B7H3 on A498 cells (human, UniProt Q5ZPR3 29-534).
T2 construct: Endogenous B7H3 of A498 human kidney carcinoma cells; also called B7H3 positive A498 cells; human B7H3+ A498 cells
T2 sequence: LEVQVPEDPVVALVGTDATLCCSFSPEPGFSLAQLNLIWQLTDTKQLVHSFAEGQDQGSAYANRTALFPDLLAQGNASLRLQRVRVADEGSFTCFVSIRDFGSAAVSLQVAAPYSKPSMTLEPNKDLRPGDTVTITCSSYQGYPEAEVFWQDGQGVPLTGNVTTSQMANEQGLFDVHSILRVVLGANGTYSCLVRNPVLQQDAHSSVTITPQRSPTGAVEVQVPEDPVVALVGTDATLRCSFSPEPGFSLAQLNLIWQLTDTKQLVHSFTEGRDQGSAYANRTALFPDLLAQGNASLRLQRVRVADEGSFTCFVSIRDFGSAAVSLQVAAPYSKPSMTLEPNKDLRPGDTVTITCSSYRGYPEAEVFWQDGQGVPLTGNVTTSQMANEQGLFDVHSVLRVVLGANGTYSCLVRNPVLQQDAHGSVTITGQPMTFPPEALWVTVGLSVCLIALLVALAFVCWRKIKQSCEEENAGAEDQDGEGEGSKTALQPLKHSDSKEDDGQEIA
The test is described as follows: flow cytometry, whole cell binding to B7H3+ A498 cells, MFI; fit value printed for the flat curve of the negative control.

In a further test the target is cynomolgus B7H3 (cynomolgus). The experiment in a line: ELISA on cynomolgus B7H3, OD450.
The target of test [3] is T2, human B7H3 on A498 cells. The test is described as follows: flow cytometry, whole cell binding to B7H3+ A498 cells, MFI (FITC). (In flow cytometry, cells or beads pass a laser one at a time.)
Test [4] addresses T2, human B7H3 on A498 cells. The test is described as follows: flow cytometry, whole cell binding to B7H3+ A498 cells, MFI.
For test [5], the target named is T2, human B7H3 on A498 cells. The experiment in a line: flow cytometry, whole cell binding to B7H3+ A498 cells, MFI (FITC). This is another data set of the same source.

B1: 5H8 VHH (VHH)
VHH: QVKLEESGGGQVQAGDSRTLSCVASGRTFSSDSMAWFREAPGKARGFVAVVSRSAGSTWYEDSVKGRFTISRDNAKNTVYLQMNSLKPEDTAVYYCAATDIATMPWLMVSSRYDYWGQGTQVTVSS
notes: VHH secreted into SS320 supernatant from phagemid pADL-23c, as screened by ELISA
For orientation: EC50 (read off the curve) means the concentration needed to bring the measured effect to its halfway point. On to B1, for which, in test [1], the “EC50 (read off the curve)” value was around 0.08 µg/mL.

B2: Reference Ab 4 (antibody, V domains shown)
VH: QVQLQQPGAELVKPGASVKLSCKASGYSFTSYWMHWVKQRPGQGLEWIGMIHPNSGSNNYNEKFKSKATLTVDKSSNTAYMQLSSLTSEDSAVYYCARRLGLHFDYWGQGTTLTVSS
VL: DIVMTQSQKFMSTPVGDRVSITCKASQNVGTAVAWYQQKPGQSPKLLIYSASNRYTGVPDRFTGSGSGTDFTLTISNMQSEDLADYFCQQYSSYPYTFGGGTKLEIK
Usually EC50 stands for the concentration giving half of the maximal effect. The low end stands for an effect from little substance, the high end for a need for much substance. For the molecule B2, the concentration giving a half-maximal response (EC50) in the test with human B7H3 on A498 cells [2] was 40.3 nM.

B3: 14C4 VHH (VHH)
VHH: QVQLVESGGGVVQAGGSLRLSCAASGRTFSSYGMGWFRQAPRKARGFVGAVTSAGSTWYEDSVKGRFTISRDNAKNTVYLQMNSLKPEDTAVYYCAATTIATMPWLMVSSRYAYWGQGTQVTVSS
notes: VHH secreted into SS320 supernatant, as screened by ELISA
In the case of B3, the “EC50 (read off the curve)” value with cynomolgus B7H3 is around 0.06 µg/mL.

B4: Reference Ab 2 (an h1702 analog) (antibody, V domains shown)
VH: QVQLQQPGAELVKPGASVKLSCKASGYTFTSYWMHWVKQRPGQGLEWIGMIHPDSGTTNYNEKFRSKATLTVDKSSSTAYMQLSSLTSEDSAVYYCAVYYGSTYWYFDVWGTGTTVTVSS
VL: DVVMTQTPLSLPVSLGDQAYISCRSSQSLVHINGNTYLHWYRQKPGQSPKLLIYKVSNRFSGVPDRFSGSGSGTDFTLKISRVEAEDLGVYFCSQSTHFPFTFGSGTKLEIK
For the molecule B4, the EC50 with human B7H3 on A498 cells [3] came out at 0.85 nM.

B5: 19c10-V2 (Fc fusion)
chain: EVQLVESGGGLVQPGGSLRLSCAASGSTFSKYAMGWFRQAPRKARGFVGAVTSAGSTWYADSVKGRFTISRDNSKNTLYLQMNSLRAEDTAVYYCAATTIATMPWLMVSSRYAYWGQGTLVTVSS
notes: Humanized FR1, FR3 and FR4; also called humanized 19c10 clone; not shown: purified by protein A and detected with anti-human IgG, so probably a human Fc
Turning to B5, the EC50 with human B7H3 on A498 cells [4] stood at 0.537 nM.

B6: 19c10-V3 (Fc fusion, not shown: a dimerising Fc or GST)
chain: EVQLVESGGGLVQPGGSLRLSCAASGSTFSKYAMGWFRQAPGKARGFVGAVTSAGSTWYADSVKGRFTISRDNSKNTLYLQMNSLRAEDTAVYYCAATTIATMPWLMVSSRYAYWGQGTLVTVSS
notes: FR2 humanized further from 19c10-V2; detected with anti-human IgG; also called humanized 19c10 clone
As to B6, the EC50 in the test with human B7H3 on A498 cells [4] came to 1.69 nM; in the test with human B7H3 on A498 cells [5] it was 5.52 nM.
